Results published in paper PMC11301380, “Non-invasive strategy: Developing a topical IL-4Rα-specific nanobody for the treatment of allergic airway diseases” (Materials Today Bio, 2024).
Positions count from the first letter of the chain named. Names may count otherwise.

B1: nanobody H5 (VHH)
VHH: QVQLVESGGGSVQAGGSLRLSCAASGSISSITYLGWFRQAPGKEREGVAALSTSSGTTYYADSVKGRFTVSLDNAKNTVYLQMNSLKPEDTALYYCAAADKGREYTLARAKYWYWGQGTQVTVSA
notes: synthetic nanobody selected from a library on the convex scaffold (pRDV containing Sb-convex, Addgene 132696) with randomised CDR3; also called H5^WT; H5 monomer; source: E. coli BL21 (pSBinit), periplasmic extract, purified (TALON Superflow)
B2: H5^A110Y (VHH)
VHH: B1 VHH with A110Y
notes: also called H5 mutant A110Y; source: E. coli BL21 (pSBinit), periplasmic extract, purified (TALON Superflow)
B3: H5^E104R (VHH)
VHH: B1 VHH with E104R
notes: also called H5 mutant E104R; source: E. coli BL21 (pSBinit), periplasmic extract, purified (TALON Superflow)

What follows are binders tested against T1, extracellular domain of human IL-4Rα (human, UniProt P24394, biotin (Biotin-labeled IL-4Rα on the Biacore sensor chip)) (assay: SPR; Biacore T200; biotin-labeled IL-4Rα immobilised on the sensor chip (BR100531); nanobody 15.625-2000 nM; running buffer PBS pH 7.4; 1:1 kinetic binding model). Settings: both partners purified.
T1 construct: interleukin-4 receptor alpha, human, extracellular domain; Source and limits of the recombinant protein may stand in the materials list of the supplement; Biotin labelling is told only for the Biacore T200 experiment; also called IL-4 Receptor alpha
T1 sequence (P24394 26-232): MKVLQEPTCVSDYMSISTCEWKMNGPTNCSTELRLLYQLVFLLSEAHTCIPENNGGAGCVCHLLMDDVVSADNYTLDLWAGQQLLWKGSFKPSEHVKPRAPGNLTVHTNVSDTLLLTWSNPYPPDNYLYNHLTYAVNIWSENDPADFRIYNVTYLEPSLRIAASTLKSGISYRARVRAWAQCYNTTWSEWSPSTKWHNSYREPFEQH

Row | Binder | Kd [nM]
1 | B1 | 1420
2 | B2 | 708
3 | B3 | 1030
